Reference: patent US20250051463A1 (AstraZeneca / MedImmune, published 2025)

Tests used:
human IL-5Rα = biological target: T1, human IL-5Rα (human, UniProt Q01344 21-342, limits assumed); experiment: biolayer interferometry, HT12-GL on the sensor, Sample ID: hIL5Ra-his in solution
T1 construct: Soluble analyte in the Octet assay; construct not described; also called hIL5-Rα; human IL-5Ra sample
T1 sequence (looked up): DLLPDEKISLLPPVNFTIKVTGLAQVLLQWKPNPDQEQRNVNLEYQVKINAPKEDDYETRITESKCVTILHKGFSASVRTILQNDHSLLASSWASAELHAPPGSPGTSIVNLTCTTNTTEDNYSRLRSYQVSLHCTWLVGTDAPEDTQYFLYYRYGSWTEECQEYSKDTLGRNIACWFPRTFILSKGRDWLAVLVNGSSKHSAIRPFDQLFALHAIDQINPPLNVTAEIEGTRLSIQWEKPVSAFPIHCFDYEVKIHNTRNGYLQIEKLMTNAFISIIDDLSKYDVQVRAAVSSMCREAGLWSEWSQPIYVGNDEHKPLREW
Description: (§1) Biolayer interferometry binding experiments were performed using an Octet RED384 instrument, with all measurements made at 30° C. AHC biosensor probes were soaked in kinetics buffer (PBS pH 7.2+0.02% Tween-20, 0.1% BSA, 0.05% sodium azide) for 10 minutes, followed by baseline signal measurement in kinetics buffer for 60 seconds. […] For binding to hIL3-Rα, the antibody-loaded biosensor tips were dipped in binding buffer for 60 sec (baseline), followed by immersion in a solution containing dilutions of hIL3-Rα (10-0.16 μg/mL) for 300 sec (association), and subsequent immersion in kinetics buffer for 400 sec (dissociation). For binding to hIL5-Rα and GM-CSFRa, all steps were the same except the concentration of antigen was increased (50-1.56 μg/mL) and the dissociation step was decreased to 300 sec. The signal from a buffer only reference sample was subtracted, and all curves were fit with a 1:1 binding model to determine KD values.

[1] = biological target: T2, human CD123 (IL3Rα) on cells (human, UniProt P26951 19-378); experiment: flow cytometry on THP-1 CD123 (no dox) cells, Geo MFI
T2 construct: whole, on cells; also called human IL3Rα expressed on 293 cells; AD293hIL3Rα
Description: (§2) THP-1 cells were transfected with an IL3Rα expression construct under the control of a doxycycline inducible promoter. THP-1 cells were maintained in DMEM containing 10% heat-inactivated fetal bovine serum (FBS) and were cultured in a humidified atmosphere of 5% CO₂ and at a temperature of 37° C. […] (Dox) inducible cells were stimulated with 1 μg/ml dox overnight before use. […] On the day of plating, cells were spun down at 1500 rpm for 3 minutes, counted, and resuspended to a final concentration of 1×10⁶ cells/ml. Two hundred μl of cells were plated in wells of 96 well microtiter plates. The plates were spun down at 1500 rpm for 3 minutes and flicked to remove media. One hundred μl of FACS buffer (PBS+2% FBS) was added to each well. […] The antibody concentration started at 12 μg/ml followed by six 1:3 dilutions (no antibody control was also run). The plates were incubated at 4° C. for 30 minutes. Following incubation, the plates were washed 3 times by spinning down at 1500 rpm for 3 minutes, flicked and 100 μl of FACs buffer was added. Alexa 647 secondary antibody (goat anti-human IgG (H+L)) was added at 1:1000 dilution in 100 μl followed by 30 minute 4° C. incubation. The plates were washed as above. […] Cells were analyzed on a BD Bioscience LSRII by collecting 10,000 cells. Flow data was analyzed in FlowJo software.

GM-CSFRα = biological target: T3, GM-CSFRα (Homo sapiens (Human), UniProt P15509 23-320); experiment: biolayer interferometry, HT12-GL on the sensor, GM-CSFRa-His in solution
T3 construct: also called GM-CSFRa; GM-CSFRa sample; not shown: His tag
T3 sequence: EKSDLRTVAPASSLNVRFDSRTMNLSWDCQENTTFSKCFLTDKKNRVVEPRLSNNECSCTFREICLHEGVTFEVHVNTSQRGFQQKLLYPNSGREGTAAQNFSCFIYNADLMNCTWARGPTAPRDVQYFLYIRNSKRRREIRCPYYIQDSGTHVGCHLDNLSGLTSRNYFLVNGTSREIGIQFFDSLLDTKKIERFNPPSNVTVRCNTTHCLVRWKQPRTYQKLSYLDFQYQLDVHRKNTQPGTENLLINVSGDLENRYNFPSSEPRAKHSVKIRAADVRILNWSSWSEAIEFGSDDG
Description: as §1

[2] = biological target: T4, cynomolgus IL3Rα (CD123), sample in solution for biolayer interferometry (cynomolgus); experiment: kinetic binding curves, antibody on the sensor, cyIL3Ra in solution; the sheet prints Temperature: 25 C
T4 construct: Soluble analyte in the Octet assay; construct not described; also called cynomolgus CD123 sample

[3] = biological target: T5, human IL3Rα (CD123), sample in solution for biolayer interferometry (human, UniProt P26951 19-305, limits assumed); experiment: biolayer interferometry (Octet RED384), antibody on AHC sensor, hIL3-Rα 10-0.16 µg/mL in solution, 1:1 fit
T5 construct: Soluble analyte in the Octet assay; also called hIL3-Rα; hIL3Rα
T5 sequence (looked up): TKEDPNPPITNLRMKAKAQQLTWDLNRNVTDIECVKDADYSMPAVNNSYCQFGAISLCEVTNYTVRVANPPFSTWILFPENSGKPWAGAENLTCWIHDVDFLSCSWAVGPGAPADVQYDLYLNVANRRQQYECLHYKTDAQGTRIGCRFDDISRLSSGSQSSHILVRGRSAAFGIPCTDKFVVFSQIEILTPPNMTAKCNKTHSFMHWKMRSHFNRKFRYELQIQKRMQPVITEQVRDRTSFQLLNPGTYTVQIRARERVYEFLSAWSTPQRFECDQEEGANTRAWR
Description: as §1

[4] = biological target: T2, human CD123 (IL3Rα) on cells; experiment: flow cytometry on THP-1 CD123(+dox) cells, Geo MFI
Description: as §2

T2 sequence (P26951 19-378): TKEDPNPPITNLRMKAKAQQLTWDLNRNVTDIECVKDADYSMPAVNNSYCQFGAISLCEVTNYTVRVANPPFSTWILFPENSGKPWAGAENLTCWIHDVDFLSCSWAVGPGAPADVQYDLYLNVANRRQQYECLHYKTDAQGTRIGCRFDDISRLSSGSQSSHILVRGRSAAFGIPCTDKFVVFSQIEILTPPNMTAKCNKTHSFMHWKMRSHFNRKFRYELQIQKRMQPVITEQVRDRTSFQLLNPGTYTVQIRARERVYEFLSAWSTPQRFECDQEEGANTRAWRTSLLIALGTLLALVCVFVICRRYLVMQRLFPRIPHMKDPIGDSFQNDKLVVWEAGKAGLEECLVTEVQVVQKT

binding result (human IL-5Rα): no binding | EC50 (read off the curve) [1]: ~0.2 µg/mL | binding result (GM-CSFRα): no binding | Kd [2]: 0.656 nM | Kd [3]: 0.31 nM | EC50 (read off the curve) [4]: ~0.3 µg/mL
B1: HT12-GL antibody (antibody, human IgG1, kappa, V domains shown)
VH: EVQLLESGGGLVQPGGSLRLSCAASGFTFNIYAMTWVRQAPGKGLEWVSGISAGGDSTYYADSVKGRFTISRDNSKNTLYLQMNSLRAEDTAVYYCAKDRGYYYGMDVWGQGTTVTVSS
VL: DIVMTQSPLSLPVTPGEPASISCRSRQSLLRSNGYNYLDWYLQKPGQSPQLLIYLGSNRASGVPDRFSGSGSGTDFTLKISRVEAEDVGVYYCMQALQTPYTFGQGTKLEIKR
notes: elsewhere unlabeled with a secondary antibody; also called HT12-GL mAb; CD123 mAb
